The Human Domainome abundance scans (Beltran et al. 2025)
± gives the uncertainty stated by the source.

B1: POU domain, class 2, transcription factor 3, residues 186 to 260; numbered along this chain, Q9UKI9 (parent)
chain: SDLEELEKFAKTFKQRRIKLGFTQGDVGLAMGKLYGNDFSQTTISRFEALNLSFKNMCKLKPLLEKWLNDAESSP
B2: Transitional endoplasmic reticulum ATPase, residues 26 to 106; numbered along this chain, P55072 (parent)
chain: LIVDEAINEDNSVVSLSQPKMDELQLFRGDTVLLKGKKRREAVCIVLSDDTCSDEKIRMNRVVRNNLRVRLGDVISIQPCP

Variants of: B1
Assay: abundance fitness (aPCA) (normalised: wild type 0, dead -1); higher = more abundant; growth selection in yeast, the domain comes from the species named
Conditions: Homo sapiens

Row | Variant | abundance fitness
1 | E48G | -1.04 ± 0.14
2 | E48K | -0.705 ± 0.081
3 | E48V | -1.04 ± 0.13
4 | E48H | -1.19 ± 0.25
5 | E48T | -1.25 ± 0.21
6 | E48Q | -1.16 ± 0.19
7 | E48C | -0.871 ± 0.16
8 | Q24W | -0.591 ± 0.48
9 | Q24S | -0.071 ± 0.26
10 | Q24A | -0.451 ± 0.44
11 | Q24C | -0.155 ± 0.19
12 | F22S | -0.282 ± 0.31
13 | F22E | -0.412 ± 0.39
14 | F22A | 0.146 ± 0.15
15 | F22R | -0.274 ± 0.25
16 | F22L | 0.065 ± 0.17
17 | L50E | -0.165 ± 0.04
18 | L50A | 0.017 ± 0.033
19 | L50Q | -0.055 ± 0.067
20 | L50S | 0.031 ± 0.041
21 | L50G | 0.031 ± 0.027
22 | L50C | -0.078 ± 0.069
23 | L50K | -0.051 ± 0.048
24 | L50R | 0.009 ± 0.031
25 | L50W | -0.105 ± 0.044

Row | Variant | abundance fitness
26 | L50H | 0.142 ± 0.091
27 | L50D | -0.204 ± 0.082
28 | L50M | -0.02 ± 0.045
29 | L50Y | -0.077 ± 0.07
30 | L50N | 0.087 ± 0.07
31 | L50T | -0.003 ± 0.047
32 | L29G | -0.042 ± 0.022
33 | L29Q | 0.007 ± 0.029
34 | L29R | 0.019 ± 0.022
35 | L29V | -0.007 ± 0.024
36 | L29P | -0.47 ± 0.039
37 | L29K | 0.042 ± 0.029
38 | L29H | -0.062 ± 0.042
39 | L29S | -0.003 ± 0.025
40 | L29F | -0.099 ± 0.045
41 | L29E | 0.02 ± 0.029
42 | L29Y | -0.06 ± 0.041
43 | L29A | 0.024 ± 0.027
44 | L29M | 0.05 ± 0.031
45 | L29D | -0.045 ± 0.039
46 | L29C | 0.026 ± 0.036
47 | L29T | -0.083 ± 0.031
48 | L29W | -0.121 ± 0.031
49 | L29I | 0.022 ± 0.042
50 | V27D | -0.727 ± 0.4

Row | Variant | abundance fitness
51 | S53D | -0.04 ± 0.049
52 | S53E | -0.061 ± 0.041
53 | I44L | -0.149 ± 0.025
54 | I44P | -0.919 ± 0.085
55 | I44M | -0.377 ± 0.035
56 | I44R | -0.86 ± 0.041
57 | I44Y | -0.569 ± 0.074
58 | I44V | -0.045 ± 0.024
59 | I44E | -0.794 ± 0.049
60 | I44G | -1 ± 0.045
61 | I44Q | -0.985 ± 0.082
62 | I44H | -1.02 ± 0.21
63 | I44D | -1.03 ± 0.13
64 | I44A | -0.784 ± 0.048
65 | I44N | -1.1 ± 0.2
66 | I44C | -0.538 ± 0.056
67 | K14A | -0.309 ± 0.32
68 | A10G | -0.064 ± 0.16
69 | K19D | 0.131 ± 0.22
70 | K19A | -0.321 ± 0.47
71 | K19L | 0.228 ± 0.41
72 | K19S | 0.11 ± 0.41
73 | K33R | 0.129 ± 0.42
74 | K33G | 0.141 ± 0.19
75 | K33W | -0.372 ± 0.22

Row | Variant | abundance fitness
76 | L52K | -0.618 ± 0.084
77 | L52I | -0.183 ± 0.094
78 | L52C | -0.107 ± 0.062
79 | L52F | -0.231 ± 0.08
80 | L52A | -0.148 ± 0.039
81 | L52M | -0.004 ± 0.044
82 | L52E | -0.131 ± 0.044
83 | L52G | -0.149 ± 0.027
84 | L52S | -0.25 ± 0.043
85 | L52R | -0.717 ± 0.048
86 | L52W | -0.201 ± 0.034
87 | L52D | -0.021 ± 0.11
88 | L52P | -0.972 ± 0.19
89 | L52N | -0.444 ± 0.1
90 | E5S | 0.031 ± 0.03
91 | E5I | -0.022 ± 0.061
92 | E5M | 0.016 ± 0.036
93 | E5N | -0.031 ± 0.061
94 | E5D | 0.036 ± 0.036
95 | E5R | -0.003 ± 0.026
96 | E5W | -0.137 ± 0.033
97 | E5F | -0.102 ± 0.044
98 | E5G | -0.045 ± 0.027
99 | E5Y | -0.269 ± 0.051
100 | E5Q | 0.003 ± 0.04

Row | Variant | abundance fitness
101 | E5T | 0.013 ± 0.031
102 | E5H | 0.029 ± 0.049
103 | E5A | 0.042 ± 0.028
104 | E5C | -0.005 ± 0.036
105 | R46W | -0.428 ± 0.043
106 | R46Y | -0.097 ± 0.096
107 | R46A | 0.015 ± 0.037
108 | R46P | -0.986 ± 0.23
109 | R46G | -0.009 ± 0.024
110 | R46E | 0.035 ± 0.036
111 | R46I | -0.745 ± 0.26
112 | R46T | -0.181 ± 0.047
113 | R46H | -0.038 ± 0.053
114 | R46L | -0.05 ± 0.035
115 | R46N | 0.011 ± 0.056
116 | R46Q | 0.014 ± 0.049
117 | R46V | -0.542 ± 0.048
118 | R46M | -0.001 ± 0.044
119 | R46D | 0.009 ± 0.058
120 | R46S | -0.008 ± 0.035
121 | R46K | 0.052 ± 0.045

Variants of: B2
Assay: as above
Conditions: Homo sapiens

Row | Variant | abundance fitness
122 | D54W | -0.289 ± 0.07
123 | D54R | -0.205 ± 0.038
124 | D10Q | -0.072 ± 0.072
125 | Q78I | -0.023 ± 0.12
126 | M21G | -0.894 ± 0.081
127 | N65L | -0.074 ± 0.051
128 | N65W | -0.157 ± 0.068
129 | S17P | -0.365 ± 0.069
130 | S53C | -0.042 ± 0.081
131 | S53M | -0.09 ± 0.073
132 | N8A | -0.059 ± 0.059
133 | L26F | -0.285 ± 0.23
134 | V32C | 0.007 ± 0.094
135 | T51N | 0.126 ± 0.14
136 | R61H | -0.157 ± 0.18
137 | R61W | -0.119 ± 0.079
138 | E23V | -0.142 ± 0.087
139 | E23S | -0.062 ± 0.059
140 | E23Q | -0.104 ± 0.11
141 | L1V | -0.003 ± 0.1
142 | L1T | -0.424 ± 0.13
143 | D4C | 0.096 ± 0.073
144 | C80Q | 0.104 ± 0.3

Row | Variant | abundance fitness
145 | D22F | -0.1 ± 0.063
146 | D22G | -0.101 ± 0.046
147 | D22I | -0.118 ± 0.085
148 | L47R | -0.01 ± 0.054
149 | L47A | 0.082 ± 0.061
150 | L34P | -1.04 ± 0.43
151 | L34G | -0.46 ± 0.12
152 | K38N | 0.186 ± 0.28
153 | R58P | -0.927 ± 0.32
154 | R58H | -0.246 ± 0.25
155 | R64P | -1.06 ± 0.3
156 | V43C | -0.012 ± 0.1
157 | V43E | 0.063 ± 0.089
158 | V74E | 0.051 ± 0.11
159 | E55D | -0.174 ± 0.13
160 | E55G | 0.018 ± 0.043
161 | L33Y | 0.086 ± 0.12
162 | C52S | -0.261 ± 0.066
163 | Q18E | -0.114 ± 0.1
164 | Q18L | -0.049 ± 0.052
165 | L24Y | -0.224 ± 0.093
166 | M59V | -0.166 ± 0.11
167 | V46M | -0.376 ± 0.12
